Experimental data published in patent publication US20240002504A1 (AKESO BIOPHARMA, published 2024).

T1: 293T-TIGIT cell membrane surface antigen TIGIT (human, UniProt Q495A1 22-244)
T1 construct: whole, on cells; also called cell membrane surface TIGIT
T1 sequence (looked up): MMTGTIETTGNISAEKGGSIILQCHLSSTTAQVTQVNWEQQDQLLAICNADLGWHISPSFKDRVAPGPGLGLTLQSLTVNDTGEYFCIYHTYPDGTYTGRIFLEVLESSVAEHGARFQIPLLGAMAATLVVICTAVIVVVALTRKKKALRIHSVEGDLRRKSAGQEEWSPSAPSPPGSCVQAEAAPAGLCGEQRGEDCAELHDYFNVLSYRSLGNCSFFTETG

T2: human TIGIT-mFc (human, UniProt Q495A1 22-141, limits assumed)
T2 construct: the whole entry NP_776160.2 is named; also called antigen TIGIT-mFc; not shown: Fc protein fragment of a mouse IgG (mFc)
T2 sequence (looked up): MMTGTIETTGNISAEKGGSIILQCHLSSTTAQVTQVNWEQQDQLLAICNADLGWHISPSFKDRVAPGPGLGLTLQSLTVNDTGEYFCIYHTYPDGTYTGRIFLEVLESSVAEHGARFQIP


Columns and labels:
[1] = molecular target: T1, 293T-TIGIT cell membrane surface …; test: FACS competition vs CD155 (10 nM) on 293T-TIGIT cells
Protocol: (§1) The cells were diluted, 300 thousand cells were added to each well of a transparent V-bottomed 96-well plate, and 200 μL of 1% PBSA was added to each tube. The mixtures were centrifuged for 5 min, and the supernatants were discarded. […] The plate was incubated on ice for 30 min. […] 200 μL of 1% PBSA was then added to each tube. The mixtures were centrifuged for 5 […], and the supernatants were discarded. The plate was washed twice. APC goat anti-mouse IgG (minimal x-reactivity) antibody (diluted 300-fold with PBSA) was added to each sample, and the mixtures were incubated on ice in the dark for 40 min. 200 μL of PBSA was added to each tube. The mixtures were centrifuged for 5 min, and the supernatants were discarded. The cells were resuspended by adding 200 μL of PBSA, and the suspensions were transferred into flow cytometry tubes to measure the mean fluorescence intensity of the cells at each concentration by a flow cytometer.

[2] = molecular target: T1, 293T-TIGIT cell membrane surface …; test: FACS competition vs CD112 (30 nM) on 293T-TIGIT cells
Protocol: as §1

[3] = molecular target: T2, human TIGIT-mFc; test: competition ELISA vs CD155-hFc-Biotin (1 ug/mL), coated TIGIT-mFc
Protocol: (§2) Experimental steps: a microplate was coated with TIGIT-mFc at 2 μg/mL, and incubated at 4° C. overnight. After incubation, the antigen-coated microplate was rinsed once with PBST, and then blocked with a PBST solution containing 1% BSA as a microplate blocking solution for 2 h. After blocking, the microplate was washed 3 times with PBST. The antibodies serially diluted with the PBST solution was added to the microplate. […] The microplate was incubated at 37° C. for 30 min, and then washed 3 times with PBST. After washing, SA-HRP working solution diluted in a ratio of 1:4000 was added, and the microplate was incubated at 37° C. for 30 min. After incubation, the plate was washed 4 times with PBST, TMB (Neogen, 308177) was added for chromogenesis in the dark for 5 min, and then a stop solution was added to terminate the chromogenic reaction. The microplate was put into a microplate reader immediately, and the OD value of each well in the microplate was read at 450 nm. The data were analyzed and processed by SoftMax Pro 6.2.1.

[4] = molecular target: T2, human TIGIT-mFc; test: BLI (Fortebio), TIGIT-mFc on AMC sensor, Ab 0.06-5 nM, 37 C, 1:1 fit
Protocol: The sample dilution buffer was PBS (0.02% Tween-20, 0.1% BSA, pH 7.4). TIGIT-mFc was immobilized on an AMC sensor at a concentration of 3 μg/mL for 50 s, and the sensor was equilibrated in the buffer for 60 s. The TIGIT-mFc immobilized on the sensor was allowed to bind to antibody at concentrations of 0.06-5 nM (three-fold dilutions) for 120 s, and the protein was dissociated in the buffer for 300 s. The sensor was regenerated with 10 mM glycine solution (pH=1.7). The detection temperature was 37° C., the detection frequency was 0.3 Hz, and the sample plate shaking rate was 1000 rpm. The data were analyzed by 1:1 model fitting to obtain affinity constants.

[5] = molecular target: T2, human TIGIT-mFc; test: competition ELISA vs CD155-hFc-Biotin (1 ug/mL), coated TIGIT-mFc; remark: listed apart in the source
Protocol: as §2

[6] = molecular target: T2, human TIGIT-mFc; test: ELISA, TIGIT-mFc captured on goat anti-mouse IgG Fc
Protocol: (§3) Experimental steps: a microplate was coated with goat anti-mouse IgG Fc at 2 μg/mL, and incubated at 4° C. for 16 h. After incubation, the microplate coated with goat anti-mouse IgG Fc was washed once with PBST, and then blocked with a PBST solution containing 1% BSA as a microplate blocking solution for 2 h. After blocking, the microplate was washed 3 times with PBST. Then, 1 μg/mL antigen human TIGIT-mFc was added, and the plate was incubated at 37° C. for 30 min and then washed 3 times with PBST. The antibodies serially diluted with the PBST solution were added to the wells of the microplate. The microplate containing the test antibodies was incubated at 37° C. for 30 min, and then washed 3 times with PBST. After washing, HRP-labeled goat anti-human IgG Fc secondary antibody working solution diluted in a ratio of 1:5000 was added, and the microplate was incubated at 37° C. for 30 min. After incubation, the plate was washed 4 times with PBST, TMB (Neogen, 308177) was added for chromogenesis in the dark for 4 min, and then a stop solution was added to terminate the chromogenic reaction. The microplate was put into a microplate reader immediately, and the OD value of each well in the microplate was read at 450 nm. The data were analyzed and processed by SoftMax Pro 6.2.1.

[7] = molecular target: T2, human TIGIT-mFc; test: as above; remark: listed apart in the source
Protocol: as §3

[8] = molecular target: T1, 293T-TIGIT cell membrane surface …; test: FACS on 293T-TIGIT cells
Protocol: The cells were diluted, 300 thousand cells were added to each well of a transparent V-bottomed 96-well plate, and 200 μL of 1% PBSA was added to each tube. The mixtures were centrifuged for 5 min, and the supernatants were discarded. […] The mixtures were centrifuged for 5 min, and the supernatants were discarded. The plate was washed twice. […] 200 μL of PBSA was added to each tube. The mixtures were centrifuged for 5 min, and the supernatants were discarded. The cells were resuspended by adding 200 μL of PBSA, and the suspensions were transferred into flow cytometry tubes to measure the mean fluorescence intensity of the cells at each concentration by a flow cytometer.

[9] = molecular target: T2, human TIGIT-mFc; test: indirect ELISA screening with human TIGIT-mFc as antigen

Row | EC50 [1] [nM] | EC50 [2] [nM] | EC50 [3] [nM] | Kd [4] [nM] | Maximum signal height of analyte [4] [nm] | S E (kdis) [4] [s⁻¹] | S E (kon) [4] [M⁻¹ s⁻¹] | koff [4] [s⁻¹] | kon [4] [M⁻¹ s⁻¹] | EC50 [5] [nM] | EC50 [6] [nM] | EC50 [7] [nM] | EC50 [8] [nM] | binding result [9] | Binder
1 | 1.21 | 1.22 | 0.236 | 0.0316 | 0.16 | 3.46e-05 | 184000 | 0.000144 | 4.56e+06 | 0.254 | 0.039 | 0.036 | 1.26 | – | RG6058 (antibody, V domains shown) VH: EVQLQQSGPGLVKPSQTLSLTCAISGDSVSSNSAAWNWIRQSPSRGLEWLGKTYYRFKWYSDYAVSVKGRITINPDTSKNQFSLQLNSVTPEDTAVFYCTRESTTYDLLAGPFDYWGQGTLVTVSS VL: not shown
2 | – | – | – | – | – | – | – | – | – | – | – | – | – | binds | 26B12 (antibody, V domains shown, Murine hybridoma antibody; also called monoclonal antibody secreted by hybridoma cell line LT019) VH: EVQLQESGPGLVKPSQSLSLTCTVTGHSFTSDYAWNWIRQFPGNRLEWMGYISYSDSTNYNPSLKSRISITRDTSKNQFFLQMNSVTTEDTATYYCARLDYGNYGGAMDYWGQGTSVTVSS VL: DIVLTQSHEFMSTSLRDRVSITCKSSQHVSTAVAWYQQKPGQSPKLLIYSASYRYTGVPDRFTGSGSGTDFTFTISSVKAEDLAVYYCQQHYITPWTFGGGTKLEIK
